The source of these data is patent publication US11285283B2, “Methods for generating and delivering droplets to the pulmonary system using a droplet delivery device” (PNEUMA RESPIRATORY, INC., priority 2016, dated 2022).

“And” between values parts separate entries of the source, which are not always exact repeats. Identical values can stand only once.

The subject of series [1] is patients with cystic fibrosis. Conditions: cited from earlier work.
A short description of series [2]: Anderson Cascade Impactor testing of droplet delivery device with Albuterol sulfate (Example B). The format is physicochemical.
Description: Droplet size distribution and related functionality was evaluated for exemplary droplet delivery devices of the disclosure, including Anderson Cascade Impactor testing, total drug mass output rates, total drug respirable mass, delivery efficiencies and reproducibility.
The study was designed to evaluate device performance of a single Pneuma™ inhaler. A series of three (3) individual tests were conducted with a new disposable drug cartridge for each test. The testing platform utilizes an eight-stage nonviable Anderson Cascade Impactor (Thermo Fisher Scientific; Waltham, Mass.) equipped with a calibrated AALBORG model GFM47 mass flow meter (AALBORG Instruments and Controls; Orangeburg, N.Y.) for flow rate measurement.
At the conclusion of each test, the mouthpiece was rinsed with mobile phase and collected for HPLC analysis to determine the mass fraction of non-respirable aerosolized drug captured in the mouthpiece via inertial filtering. Following each test, impactor stage samples were extracted and recovered in solvent and analyzed for the active pharmaceutical ingredient (API) using a Dionex Ultimate 3000 nano-HPLC with UV detection (Thermo Scientific, Sunnyvale, Calif.).
The cascade impactor testing procedure involved fitting the mouthpiece into the Impactor USP throat with a mouthpiece connection seal. The vacuum pump supplying sample air flow to the cascade impactor was turned on and the pump control valves adjusted to supply 28.3 L/min total flow through the impactor and inhaler body during aerosol tests.
The device was connected to the impactor USB throat, turned on, and actuated ten (10) times for each test. At the conclusion of the test period, the device, impactor, and dilution air sources were turned off. The i mouthpiece was rinsed in order to extract drug, and all stages of the cascade impactor were rinsed with a quantity of appropriate solvent (HPLC mobile phase). Extracted samples were placed in labeled and sterile HPLC vials, capped, and analyzed for drug content via HPLC with UV detection. The mouthpiece was extracted of residual drug and analyzed for drug content via HPLC to measure mouthpiece drug deposition in relation to the total collected on the impactor stages.
All system flow rates and impactor sample flows were monitored throughout each test period. Following each test, the impactor slides were placed in labeled sterile Petri dishes, and impactor stages were extracted of drug using 2 ml of mobile phase applied with a calibrated micropipette. All extracted samples from the mouthpiece and impactor were placed in labeled sterile amber HPLC sample vials, and stored refrigerated at approximately 2° C. until HPLC analysis.
Impactor collection stages for all tests were rinsed with DI water and ethanol, and air dried prior to each inhaler test trial to avoid contamination. A new inhaler drug cartridge was used for each of the three individual tests.
All drug content analysis was performed using a Dionex Ultimate 3000 nano-HPLC equipped with a Dionex UVD-3000 multi-wavelength UV/VIS Detector using a micro flow cell (75 μm×10 mm path length, total analytical volume 44.2 nl). […] Total HPLC run time was 6 minutes per sample with approximately 5 minutes flush between each sample. Sample injection was performed with a 1 μl sample loop in full loop injection mode.
Buffer formulation contains reverseosmosis filtered deionized water with 1.13 gr of sodium 1-hexanesulfonate (Alfa Aesar) in 1200 ml of water, with 2 ml glacial acetic acid (Acros Organics) added. The mobile phase solution was mixed and filtered through a 0.45 μm filter membrane. The final mobile phase is a 60:40 dilution of Buffer: MEOH.
The nature of series [3]: Insulin stability after aerosol generation, size exclusion chromatography. In kind it is physicochemical. The text has this:
Alternately, to determine the stability of active agent after droplet generation, the generated stream of droplets including the active agent may be collected and SEC-HPLIC may be employed to monitor for any changes in large molecule aggregation and protein fragment content. Soluble protein aggregates and protein fragment content may be calculated by comparing respective peak area under the SEC-HPLC curve of dispensed protein solutions with controls (solutions remaining in the device reservoir).
Drug solutions for testing include Enbrel, (ENBREL® single-use prefilled syringes in 25 mg (0.51 mL of a 50 mg/mL solution of etanercept), and insulin, (Humalog, 200 units/ml, 3 ml kwikpens)
To calculate and compare effects of droplet generation through an ejector mechanism of the disclosure, the total area under the curve of the UV signal at 280 nm versus elution time for controls is compared with the aerosolized samples, which is set to 100%.
Aerosol collection and SEC is performed in a similar fashion as for the Enbrel analysis and aerosol collection.
Fifty microliters of the collected aerosol spray is injected onto the SEC column for analysis, while 50 mcl of the Kwikpen insulin solution is injected onto the SEC column for control samples.

Series [4] is described as follows: Gel electrophoresis of active agent after droplet generation. In kind it is physicochemical. Conditions: after droplet generation with the device. The text has this:
To determine the stability of active agent after droplet generation, the generated stream of droplets including the active agent is collected and the molecular weight of the active agent is verified using gel electrophoresis.

A short description of series [5]: Enbrel stability after aerosol generation, size exclusion chromatography. The format is physicochemical. Conditions: for Peak 1 Peak Area % / Peak 2 Peak Area % / Peak 3 Peak Area % / Peak 4 Peak Area % / Peak 5 Peak Area %: replicate samples. The text has this: Alternately, to determine the stability of active agent after droplet generation, the generated stream of droplets including the active agent may be collected and […] may be employed to monitor for any changes in large molecule aggregation and protein fragment content. Soluble protein aggregates and protein fragment content may be calculated by comparing respective peak area under the SEC-HPLC curve of dispensed protein solutions with controls (solutions remaining in the device reservoir). Drug solutions for testing include Enbrel, (ENBREL® single-use prefilled syringes in 25 mg (0.51 mL of a 50 mg/mL solution of etanercept), and insulin, (Humalog, 200 units/ml, 3 ml […] is performed with a YarraTM 3 μm SEC-2000 LC column 300×7.8 mm, SecurityGuard cartridge kit and SecurityGuard cartridges GFC-2000, 4×3 mm ID. Fifty microliters of Enbrel from the syringe (ENBREL® single-use prefilled syringes in 25 mg/0.51 mL of a 50 mg/mL solution of etanercept) is diluted (4:1) (4 parts, 200 mcl of the mobile phase buffer solution to 1 part, 50 mcl Enbrel from syringe). Fifty microliter of the diluted Enbrel is injected and separation was performed at a flow rate of 1.0 ml/min. The mobile phase buffer system included a PHOS. BUFF. SALINE. […] UV detection is performed at 280 nm. […] An ampule/cartridge is filled with […] of Enbrel® (50 mg/ml) diluted 4:1 (10 mg/ml)(4 parts (200 mcl) of PBS and 0.025% NaN3 and 1 part (50 mcl of Enbrel solution from the syringe). After 20 actuations and aerosolization, about 150 mcl of the aerosolized Enbrel solution is recovered and collected in the polypropylene tube located below the ejector mechanism. The control consists of the diluted Enbrel solution, 50 mcl of which is injected into the SEC column for analysis.

The mark [6] stands for this setting: Albuterol 0.5%, 28.3 lpm, 10 actuations.
Setting [7] is: aerosolized, average of S1 and S2.

With `NC[C@H]1O[C@H](O[C@H]2[C@H](O)[C@@H](O[C@H]3O[C@H](CO)[C@@H](O)[C@H](N)[C@H]3O)[C@H](N)C[C@@H]2N)[C@H](N)C[C@@H]1O` [tobramycin], the “pulmonary function after administration by inhalation” value in series [1] (inhalation, without severe side effects to kidney functions) is “significantly improves pulmonary function”. In series [1] (intravenous administration), the “serum levels after intravenous administration” value is recorded as “toxic to the kidneys”.

Regarding Albuterol sulfate, in series [2] (setting [6]), the “droplets of an average diameter of less than about 5 μm” value is given as “over 75%” and the “droplets with an average diameter of less than about 4 μm” value is reported as “over 70%”. Further, in series [2] (FILTER), the “Cum. % <” value was determined as 0.00% and the “Cum. % >” value is listed as 100.00%. Besides, in series [2] (Pre-separator, cut diam. 10 μm), the “Cum. % <” value is given as 100.00% and the “Cum. % >” value was determined as 0.00%.

With “Insulin: insulin, Humalog, 200 units/ml, 3 ml kwikpens”, the “ejected dose forming a fragment which elutes at ~25 minutes” value in series [3] (aerosolized with test device) is recorded as 2.5%. The “Peak 1 Peak Area %” value in series [3] (aerosolized with test device, 20 actuations, replicate samples) is 27.881% and 28.721%; in series [3] (control, Kwikpen solution 200 U/ml, not aerosolized) it was 29.926%. For the same molecule, the “Peak 2 Peak Area %” value in series [3] (aerosolized with test device, replicate samples) is 69.780% and 67.807%; in series [3] (control, not aerosolized), 69.630%. For the same molecule, the “Peak 3 Peak Area %” value in series [3] (aerosolized with test device, replicate samples, fragment, elution ~25 min) is 2.184% and 2.797%; in series [3] (control, not aerosolized), 0%. In addition, the “Peak 3 Peak Area %, Avg.” value in series [3] (setting [7]) came to 2.4905.

Consider bevacizumab, for which, in series [4], the “change in electrophoretic mobility / molecular weight of post-aerosol active agent versus control” value is “negligible change”.

On to adalimumab, for which the “change in electrophoretic mobility / molecular weight of post-aerosol active agent versus control” value in series [4] was “negligible change”.

With etanercept [Enbrel], in series [5] (aerosolized with test device), the “dose forming molecular fragments with elution times of 13 and 25 minutes” value stood at 4.6%; the “Peak 2 Peak Area %” value is 92.112% and 90.789%; the “Peak 3 Peak Area %” value is 0.361% and 0.424%. Further, the “Peak 1 Peak Area %” value in series [5] (aerosolized with test device, 20 actuations) is 3.476% and 2.796%. In series [5] (aerosolized with test device, fragment, elution about 13 min), the “Peak 4 Peak Area %” value is 0.352% and 0.357%. In series [5] (aerosolized with test device, fragment, elution about 25 min), the “Peak 5 Peak Area %” value was 3.428% and 5.130% and 5.123%. For the same molecule, in series [5] (setting [7]), the “Peak 4 Peak Area %, Avg.” value is given as 0.3545 and the “Peak 5 Peak Area %, Avg.” value is on record as 4.2755. For the same molecule, the “Peak 1 Peak Area %” value in series [5] (control, Enbrel diluted 4:1 (10 mg/ml), not aerosolized) is 2.428% and 3.041%. In series [5] (control, not aerosolized), the “Peak 2 Peak Area %” value was 96.676% and 95.909%; the “Peak 3 Peak Area %” value was 0.373% and 0.351%; the “Peak 4 Peak Area %” value came out at 0%; the “Peak 5 Peak Area %” value turned out to be 0%. In series [4], the “change in electrophoretic mobility / molecular weight of post-aerosol active agent versus control” value is “negligible change”.
